A short description of series [1]: XenA activity with different cofactors. The class given is biochemical. The note with it: ketoisophorone as substrate. Here is the method:
Enzyme assay conditions: The enzymatic buffer contained 200 mM phosphate buffer (pH 7.5), 5 mM ketoisophorone, and 0.2 mM NADPH, NADH, or NMNH, and appropriate amount of purified XenA protein. The initial reaction rate was quantified by absorbance variation at 340 nm using a spectrophotometer at 37° C. Reactions with no ketoisophorone added were performed to quantify the non-specific reaction rate. The net reaction rate as shown in FIG. 13 was calculated by subtracting the non-specific reaction rate from the total reaction rate. For generating NMNH, a microcentrifuge tube (2 mL) containing 35 mM Tris-HCl (pH 8.0), 4 mM NMN^+, 1 M NaCl and 140 mM glucose, was incubated for ˜3 hr at 30° C. with purified Bs GDH I195R. An aliquot of this reaction system was taken to measure the accumulation of NMNH by reading absorbance at 340 nm. The proteins in the reaction were removed by filtering the mixture with centrifugal filter units (Amicon Ultra-0.5 Centrifugal Filter Units, Millipore, USA). The solvent was evaporated, and the residue was collected to give NMNH as a yellowish oil.

The nature of series [2]: GDH enzymatic assay with NAD^+ as cofactor. The class given is biochemical. The note with it: for Kcat / Km: cofactor NAD^+. Here is the method: (§1) GDH enzymatic assays. The GDH activity was measured as described in Hilt et al. (Biochimica et biophysica acta 1076(2):298-304 (1991)). The reactions were started by adding the purified protein to the assay mixture containing 35 mM Tris-HCl buffer (pH 8.0), 3 mM NAD^+, NADP^+ or NMN^+ and 140 mM glucose. The absorbance variation at 340 nm was detected by a spectrophotometer at 25° C.

Series [3] is described as follows: GDH enzymatic assay with NADP^+ as cofactor. The series is classed as biochemical. The note with it: for Kcat / Km: cofactor NADP^+. Here is the method:
as §1

A short description of series [4]: GDH enzymatic assay with NMN^+ as cofactor. The class given is biochemical. Particulars: for Kcat / Km: cofactor NMN^+. Here is the method:
as §1

Series [5] in a line: Protein expression levels of GDH variants. More on the design: species or system Escherichia coli. Particulars: expressed in E. coli. Here is the method:
Proteins were purified as 6×His tag fusion at the N-terminus. E. coli BL21 (DE3) with plasmids were inoculated into LB medium with 200 mg L^−1 ampicillin. Cells were induced with 0.5 mM IPTG and expressed for 24 hours at 30° C. with shaking at 250 rpm. BM3 cytochrome P450 was extracted with the EMD Millipore™ BugBuste Plus Lysonase Kit and purified using the HisPur™ Ni-NTA Superflow Purification System according to the manufacturer's instructions. Other proteins were purified using His-Spin Protein Miniprep kit (Zymo Research Corporation, CA). The purified proteins were quantified by Bradford assay.

A short description of series [6]: XenA-GDH coupled cycling biotransformation of ketoisophorone to levodione. The class given is biochemical. Here is the method: Coupled enzymatic biotransformation. All biotransformation reactions were performed in buffer A at 30° C. for 24 hours. Reaction buffer A, modified from that disclosed in Chaparro-Riggers et al., Advanced Synthesis & Catalysis 349(8-9):1521-1531 (2007)), contained 200 mM potassium phosphate buffer (pH 7.5), 1 M NaCl, 300 mM D-glucose, 6 mM NMN^+ (or NADP^+ as the positive control), and substrates. All assays were performed in triplicate, with no proteins or no cofactors added as negative controls. The protein loading for GDH variants was kept at 0.33 mg mL^−1 or 11.7 μM. The various enzymes for biotransformation reactions were added at the concentration of 0.75 mg mL^−1.
For XenA-GDH coupled cycling assays, the substrates ketoisophorone, citral, or trans-2-hexen-1-al were added at 33 mM, 10 mM, or 50 mM, respectively. For the OYE3-GDH coupled cycling assays, the substrate 4-phenyl-3-butyn-2-one was added at 5 mM. At various time points over 24 hours, 100 μL samples were taken and extracted with 100 μL ethyl acetate. Conversion was determined via GC-FID with octanol as an internal standard (see below). For NfsB-GDH coupled cycling assays, 2 mM nitrofurazone was used as the substrate. Nitrofurazone conversion was measured spectroscopically at 400 nm and quantification was performed using a standard curve. The initial levels of the above-mentioned substrates were mainly determined by their solubility in the assay buffer. For BM3-GDH coupled cycling assays, 50 μM cytochrome c (C2506 Sigma) was used as the substrate. The reduction of cytochrome c was measured spectroscopically at 550 nm. and the quantification was performed using extinction coefficient ε550 of 21.1 mM^−1 cm^−1.
Coupled cycling conditions: All biotransformation reactions were performed in buffer A at 30° C. for 24 hours. Reaction buffer A contained 200 mM potassium phosphate buffer (pH 7.5), 1 M NaCl, 300 mM D-glucose, 6 mM NMN^+. Substrate ketoisophorone was added at 5 g/L. At various time points over 24 hours, 100 μL samples were taken and extracted with 100 μL ethyl acetate. Conversion was determined via GC-FID with octanol as an internal standard (see below).

The test system of the next series is E. coli strain MX103. Nature of the series: E. coli growth with NMN^+-dependent glycolysis. The series is classed as cell-based, Escherichia coli.
The next series deals with E. coli whole cells. Description: NMN^+-dependent whole-cell biotransformation of KIP. The series is classed as cell-based, Escherichia coli. Here is the method: NMN^+-dependent whole-cell biotransformation. One biotransformation plasmid expressing XenA, LVR, or ADH with a GDH (selected from pLZ217-pLZ225) and pSM104 containing the glucose transport facilitator were transformed into strain MX102 by electroporation. 4 mL seed cultures of 2×YT media with appropriate antibiotics, 0.1 mM IPTG, and 0.2% (wt/v) glucose were cultured at 30° C. while shaking at 250 rpm for 16 hours. 0.5% (v/v) seed cultures were used to inoculate 150 mL of 2×YT media with appropriate antibiotics, A5 trace metals with cobalt, and 0.5 mM IPTG in a 250 mL baffled shake flask and cultured at 30° C. at 250 rpm. When an OD600˜0.4 was reached, protein expression was induced with 0.1% (w/v) arabinose and cultured for an additional 8 hours at 30° C. while shaking at 250 rpm. Cells were harvested by centrifugation for 15 minutes at 20° C. at 3750 rpm. The supernatant was discarded. Nutrients from the media were removed by washing the pelleted cells 3 times with 50 mL of 100 mM potassium phosphate at pH 7.5. Cells were resuspended to an OD600 of 100 in assay buffer consisting of 100 mM potassium phosphate buffer at pH 7.5, 200 mM D-glucose, 0.5% arabinose, and 0.5 mM IPTG. 1 mL of resuspended cells were added to 20 mL of identical assay buffer in a 250 mL unbaffled, screw-cap shake flask. KIP was spiked into the flask to 5 g/L to initiate the reaction. Flask caps were secured tightly to prevent evaporative loss of substrate or products. Flasks were incubated at 30° C. while shaking at 250 rpm for 48 hours. After 48 hours, 1 mL of culture was pelleted, and the supernatant was used for analysis. 200 μL of supernatant was extracted with an equal volume of ethyl acetate containing 200 mg/L octanol as an internal standard, and the samples were analyzed by gas chromatography. For samples expressing all three conversion enzymes (XenA, LVR, and ADH) on the same vector (pLZ226), the Bs GDH was expressed individually on a separate vector (pSM106, pSM107, or pSM108). The Zm glf gene was also expressed in the system (pSM110).

“Also recorded” adds a separate entry of the source.

B1: XenA: enoate reductase XenA from Pseudomonas putida, wild type (protein, listed as Pseudomonas putida)
chain: MSALFEPYTLKDVTLRNRIAIPPMCQYMAEDGLINDWHQVHYASMARGGAGLLVVEATAVAPEGRITPGCAGIWSDAHAQAFVPVVQAIKAAGSVPGIQIAHAGRKASANRPWEGDDHIGADDARGWETIAPSAIAFGAHLPNVPRAMTLDDIARVKQDFVDAARRARDAGFEWIELHFAHGYLGQSFFSEHSNKRTDAYGGSFDNRSRFLLETLAAVREVWPENLPLTARFGVLEYDGRDEQTLEESIELARRFKAGGLDLLSVSVGFTIPETNIPWGPAFMGPIAERVRREAKLPVTSAWGFGTPQLAEAALQANQLDLVSVGRAHLADPHWAYFAAKELGVEKASWTLPAPYAHWLERYR
On to B1, for which, in series [1], the “activity with NMNH as reducing cofactor” value is “comparable activity to the natural cofactors NADH and NADPH; also recorded: comparable activity to the natural cofactors NADPH and NADH”.

B2: I195R: Bs GDH, same sequence as SEQ ID NO:1 except I195R (SEQ ID NO:2) (protein)
chain: MYPDLKGKVVAITGAASGLGKAMAIRFGKEQAKVVINYYSNKQDPNEVKEEVIKAGGEAVVVQGDVTKEEDVKNIVQTAIKEFGTLDIMINNAGLENPVPSHEMPLKDWDKVIGTNLTGAFLGSREAIKYFVENDIKGNVINMSSVHEVIPWPLFVHYAASKGGIKLMTETLALEYAPKGIRVNNIGPGAINTPRNAEKFADPKQKADVESMIPMGYIGEPEEIAAVAAWLASKEASYVTGITLFADGGMTQYPSFQAGRG
modifications: I195R mutant GDH coding sequence
Turning to B2, the figures for the Kcat in series [2], in series [3] and in series [4] were 7.3 ± 1.1 s⁻¹, 2.5 ± 0.21 s⁻¹ and 1.1 ± 0.27 s⁻¹, respectively. The results for the Km in series [2], in series [3] and in series [4] were 0.053 ± 0.0092 mM, 0.016 ± 0.0008 mM and 8.9 ± 0.69 mM, respectively. The “improvement of specific activity towards NMN^+” value in series [4] (versus wild-type Bs GDH) was found to be 545 fold. In series [5], this molecule showed an Expression level of 108.83 μg protein/ml culture. In series [6] (NMN^+ as cycling cofactor, XenA in excess, GDH 11.7 μM), the “initial productivity of levodione” value was approximately 0.51 µM/s. Further, in series [6] (versus wild type Bs GDH), the “improvement of NMN^+-dependent productivity” value came to 10 fold.

B3: I195R-A93K-Y39Q-S17E: Bs GDH with I195R, A93K, Y39Q, S17E substitutions (SEQ ID NO:7) (protein)
chain: MYPDLKGKVVAITGAAEGLGKAMAIRFGKEQAKVVINYQSNKQDPNEVKEEVIKAGGEAVVVQGDVTKEEDVKNIVQTAIKEFGTLDIMINNKGLENPVPSHEMPLKDWDKVIGTNLTGAFLGSREAIKYFVENDIKGNVINMSSVHEVIPWPLFVHYAASKGGIKLMTETLALEYAPKGIRVNNIGPGAINTPRNAEKFADPKQKADVESMIPMGYIGEPEEIAAVAAWLASKEASYVTGITLFADGGMTQYPSFQAGRG
modifications: I195R A93K Y39Q S17E mutant GDH coding sequence
Regarding B3, in series [2], the Kcat was determined as 0.025 ± 0.002 s⁻¹ and the Km (commonly the concentration of substrate that gives half-maximal velocity) worked out at 6.5 mM. The “drop of catalytic efficiency for NAD^+ upon introducing S17E” value in series [2] (compared with GDH Triple) came out at 220 fold. In addition, in series [3], the Kcat amounted to 0.022 ± 0.013 s⁻¹ and the Km is 2 mM. In addition, the “drop of catalytic efficiency for NADP^+ upon introducing S17E” value in series [3] (compared with GDH Triple) is 890 fold. Also, in series [4], the “change of NMN^+-dependent catalytic efficiency compared with GDH Triple” value was “modest reduction”, the Kcat came to 1.21 ± 0.09 s⁻¹ and the Km turned out to be 5.9 ± 1 mM. Besides, in series [4] (compared to wild type), the “overall specificity switch towards NMN^+ from NADP^+” value is given as ~1×10^7 fold and the “overall specificity switch towards NMN^+ from NAD^+” value is given as ~2×10^7 fold. Also, in the series on E. coli strain MX103 (minimal glucose medium, GDH without XenA), the “cell growth on glucose” value is listed as “did not grow”. For the same molecule, the “cell growth on glucose” value with E. coli strain MX103 (minimal medium, glucose sole carbon source, GDH with XenA, listed as GDH Ortho) was “able to grow; also recorded: supported E. coli growth on glucose”. In addition, in the series with E. coli whole cells (XenA, LVR and ADH over-expressed simultaneously), the “levodione fraction of total products by mass” value was approximately 92%. The “LVR- and ADH-catalyzed formation of phorenol or HIP” value in the series on E. coli whole cells (resting cells with LVR or ADH) is recorded as “minimal levels of phorenol or HIP”. For the same molecule, the levodione produced with E. coli whole cells (resting cells with XenA, 5 g/L KIP, glucose co-substrate) is listed as approximately 1 g/L.

These data come from patent publication US12618050B2, “Engineered polypeptides that exhibit increased catalytic efficiency for unnatural cofactors and uses thereof” (The Regents of the University of California, priority 2018, dated 2026).
